Read-outs that look alike come from different tables or passages of the source.
Assays:
cryo-EM structure [1] = biological target: the molecule itself; assay: cryo-EM structure
cryo-EM structure [2] = biological target: the molecule itself; assay: cryo-EM structure; remark: listed apart in the source

B1: FliL of Borrelia burgdorferi (BbFliL) (natural protein, UniProt Q57442 1-178, looked up)
chain: MPNKDDDNLDMGDSNVSRKGGLLPDIIIKILQILAIGIFTVAIMIIVSYFVSKMVVSQSGAPSDFPVFSNEYLGKPPMLIWYESIDEIRGNTLDVPPKTFVVKLALGYAENNVNILNELGRQKVRLKDIIREYFSQRTGQEIKNESQIKAEIKARINSILRNGEIKEIALTQIDIFDM
stoichiometry N (cryo-EM structure [1]): 10
stoichiometry N (cryo-EM structure [2]): 4
